Results reported in paper PMC4151078, “Visualization of the physical and functional interaction between hMYH and hRad9 by Dronpa bimolecular fluorescence complementation” (BMC Molecular Biology, 2014).

Assays:
[1] = biological target: T1, GST-hMYH (full-length, amino acids 1-547) (human, UniProt Q9UIF7-1 1-546); experiment: pull-down; GST or GST-hMYH fusion on glutathione-Sepharose 4B beads, purified His-hRad9 added; 50 mM Tris-HCl pH 7.5, 150 mM NaCl, 1 mM EDTA, 0.3 mM DTT, 0.1% NP-40; 3 h at 4°C; blot with anti-GST and anti-His; settings: both partners purified
T1 construct: human MutY glycosylase homolog (hMYH), NM_012222; printed as full-length, amino acids 1-547; cloned into pGEX-4T1; also called GST-tagged hMYH wild type; source: bacterially expressed and purified
T1 sequence (looked up): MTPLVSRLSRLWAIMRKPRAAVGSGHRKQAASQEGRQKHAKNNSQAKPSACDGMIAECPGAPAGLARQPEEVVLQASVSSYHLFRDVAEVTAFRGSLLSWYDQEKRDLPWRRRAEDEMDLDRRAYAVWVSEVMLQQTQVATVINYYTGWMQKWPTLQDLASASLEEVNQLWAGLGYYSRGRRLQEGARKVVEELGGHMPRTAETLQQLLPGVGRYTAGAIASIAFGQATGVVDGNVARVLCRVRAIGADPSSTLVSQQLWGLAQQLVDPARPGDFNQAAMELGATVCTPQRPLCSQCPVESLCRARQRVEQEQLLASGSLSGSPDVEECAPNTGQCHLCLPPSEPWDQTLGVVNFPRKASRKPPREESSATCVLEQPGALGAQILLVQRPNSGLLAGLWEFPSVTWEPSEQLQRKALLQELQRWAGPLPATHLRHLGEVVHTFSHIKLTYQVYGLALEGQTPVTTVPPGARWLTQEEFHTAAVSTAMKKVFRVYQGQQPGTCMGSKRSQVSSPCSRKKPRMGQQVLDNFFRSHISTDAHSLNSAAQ

[2] = biological target: T2, GST-hMYH-ΔC (amino acids 1-487) (human, UniProt Q9UIF7-1 1-487); experiment: as above; settings: both partners purified
T2 construct: cloned into pGEX-4T1; source: bacterially expressed and purified
T2 sequence (looked up): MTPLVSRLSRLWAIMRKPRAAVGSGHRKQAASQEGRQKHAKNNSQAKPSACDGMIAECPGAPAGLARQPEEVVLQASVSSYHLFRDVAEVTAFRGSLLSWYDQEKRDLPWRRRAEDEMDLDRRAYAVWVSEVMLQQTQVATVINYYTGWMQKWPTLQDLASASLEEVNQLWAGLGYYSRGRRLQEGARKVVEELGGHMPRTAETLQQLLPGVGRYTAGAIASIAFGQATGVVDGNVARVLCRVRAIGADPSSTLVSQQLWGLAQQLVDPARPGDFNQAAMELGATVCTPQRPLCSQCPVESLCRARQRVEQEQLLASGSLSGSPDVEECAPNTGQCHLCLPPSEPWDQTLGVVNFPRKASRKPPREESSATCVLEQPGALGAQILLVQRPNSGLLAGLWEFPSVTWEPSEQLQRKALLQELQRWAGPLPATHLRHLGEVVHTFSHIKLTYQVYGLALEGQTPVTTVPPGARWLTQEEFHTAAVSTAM

- binding result [1]: binds
- binding result [2]: binds
B1: His-hRad9 (natural protein, human, UniProt Q99638 1-391, looked up)
chain: MKCLVTGGNVKVLGKAVHSLSRIGDELYLEPLEDGLSLRTVNSSRSAYACFLFAPLFFQQYQAATPGQDLLRCKILMKSFLSVFRSLAMLEKTVEKCCISLNGRSSRLVVQLHCKFGVRKTHNLSFQDCESLQAVFDPASCPHMLRAPARVLGEAVLPFSPALAEVTLGIGRGRRVILRSYHEEEADSTAKAMVTEMCLGEEDFQQLQAQEGVAITFCLKEFRGLLSFAESANLNLSIHFDAPGRPAIFTIKDSLLDGHFVLATLSDTDSHSQDLGSPERHQPVPQLQAHSTPHPDDFANDDIDSYMIAMETTIGNEGSRVLPSISLSPGPQPPKSPGPHSEEEDEAEPSTVPGTPPPKKFRSLFFGSILAPVRSPQGPSPVLAEDSEGEG
notes: human Rad9 (hRad9), NM_004584; also called purified His-hRad9; His-purified hRad9 protein; source: bacterially expressed and purified
